In patent publication US11905559B2, “Materials and methods for controlling gene expression” (priority 2016, dated 2024):

Experiment: Constant-force optical tweezers folding assay of the wild-type aptamer in 2,6-diaminopurine (DAP)
Assay type: physicochemical
Conditions: 3 mM Mg^2+; for Folding rate kf / Transition distance ΔX / Unfolding rate ku / ΔG (0): 250 uM DAP; for ΔG (0): zero force
Source text: Guanine binds to the aptamer via nucleobases U^22, U^47, U^51 and C^74 in the junction J1/2, J2/3 and J3/1. The hydrogen bonding between C^74 with the functional group in the 6th position of the purine is deterministic for ligand recognition. The purine analog 2,6-diaminopurine (DAP) differs from guanine in having an amino group in the 6th position (FIG. 13), and thus disrupts the hydrogen bonding pattern. […] In order to investigate if the loop-loop dynamics in the guanine-riboswitch are affected with a change in the ligand, mechanical assays in the presence of DAP were performed. […] Furthermore, a near similar L2-L3 kinetics highlighted that the tertiary and the secondary interactions remained unaffected by replacing guanine with DAP (Table 1).
In a constant-force (CF) experiment, the RNA is held at a preset force through feedback control. The preset force typically fluctuated around the mean with a standard deviation ±0.15 pN. In this mode, data is recorded from 4-40 kHz to capture the fast intermediates. The plots are shown as extension vs. time (as in FIG. 6A). In force-jump (FJ) assay, the force is suddenly jumped from one force to another, and then held constant thereafter, as shown in FIGS. 23A-B.
All FR, CF and FJ experiments were carried out at an ambient temperature, 25±0.5° C. The buffer in the microfluidics contained 10 mM Tris-HCl, pH 7.5 at 25° C., 250 mM NaCl, 3 mM MgCl2, and purine concentrations as indicated in wild-type aptamer. Unless stated otherwise, Mg^2+ concentration in the buffer was maintained at 3 mM in all experiments. The buffer in mutant m1 contained 5 mm Mg^2+ and 1 μM G, and in m3 contained 5 mM Mg^2+ and 200 nM Guanine. For the remaining m2, m4, m5 and m6 mutants, the buffer in single-molecule experiments was supplemented only with 3 mM Mg^2+ and 200 nM Guanine.

[1] = transition BA (P1 folding), F 8.5 pN
[2] = transition C′B (L2-L3 folding), F 8.5 pN
[3] = transition DC (P3 folding), F 12.0 pN
[4] = transition ED (P2 folding), F 13.5 pN

B1: wt: 69-nucleotide full-length wild-type guanine sensing aptamer RNA sequence from xpt-pbuX operon in B. subtilis (SEQ ID NO: 1) (nucleic acid)
chain: CACUCAUAUAAUCGCGUGGAUAUGGCACGCAAGUUUCUACCGGGCACCGUAAAUGUCCGACUAUGGGUG
modifications: RNA, backbone and methylation of C not given here
Equilibrium force F^eq (transition BA (P1 folding), 250 uM DAP (rates at 8.5 pN)): 9.8 ± 0.1 pN | Folding rate kf [1]: 0.29 ± 0.02 s⁻¹ | Transition distance ΔX [1]: 9.7 ± 0.2 nm | Unfolding rate ku [1]: 0.023 ± 0.004 s⁻¹ | ΔG (0) (transition BA (P1 folding), from data at 8.5 pN): −16.6 ± 0.5 kBT | Equilibrium force F^eq (transition C′B (L2-L3 folding), 250 uM DAP (rates at 8.5 pN)): 8.7 ± 0.2 pN | Folding rate kf [2]: 0.96 ± 0.08 s⁻¹ | Transition distance ΔX [2]: 3.6 ± 0.2 nm | Unfolding rate ku [2]: 0.8 ± 0.06 s⁻¹ | ΔG (0) (transition C′B (L2-L3 folding), from data at 8.5 pN): −7.6 ± 0.4 kBT | Equilibrium force F^eq (transition DC (P3 folding), 250 uM DAP (rates at 12.0 pN)): 12.3 ± 0.02 pN | Folding rate kf [3]: 22.0 ± 0.6 s⁻¹ | Transition distance ΔX [3]: 7.5 ± 0.3 nm | Unfolding rate ku [3]: 14.3 ± 0.4 s⁻¹ | ΔG (0) (transition DC (P3 folding), from data at 12.0 pN): −15.5 ± 0.9 kBT | Equilibrium force F^eq (transition ED (P2 folding), 250 uM DAP (rates at 13.5 pN)): 13.6 ± 0.02 pN | Folding rate kf [4]: 14.7 ± 0.4 s⁻¹ | Transition distance ΔX [4]: 7.0 ± 0.2 nm | Unfolding rate ku [4]: 13.4 ± 0.4 s⁻¹ | ΔG (0) (transition ED (P2 folding), from data at 13.5 pN): −16.3 ± 0.7 kBT
